From US20200331965A1 (EMORY UNIVERSITY, published 2020)

B1: native claudin-5 (rat alveolar epithelial cells) (other, UniProt Q9JKD6 1-218, looked up)
chain: MGSAALEILGLVLCLVGWVGLILACGLPMWQVTAFLDHNIVTAQTTWKGLWMSCVVQSTGHMQCKVYESVLALSAEVQAARALTVGAVLLALVALFVTLTGAQCTTCVAPGPVKARVALTGGALYALCGLLALVPLCWFANIVVREFYDPTVPVSQKYELGAALYIGWAASALLMCGGGLVCCGAWVCTGRPEFSFPVKYSAPRRTTANGDYDKKNYV
notes: whole, on cells; Endogenous protein in primary rat AECs from control-fed or alcohol-fed rats; detected with antibodies (co-immunopurification, STORM, PLA); also called Cldn-5

Legend:
[1] = biological target: zonula occludens 1 (rat alveolar epithelial cells) (rat); assay: STORM co-localization, untransduced rat AECs
Sequence of zonula occludens 1 (rat alveolar epithelial cells) (rat) (A0A0G2 entry or part of it limits assumed): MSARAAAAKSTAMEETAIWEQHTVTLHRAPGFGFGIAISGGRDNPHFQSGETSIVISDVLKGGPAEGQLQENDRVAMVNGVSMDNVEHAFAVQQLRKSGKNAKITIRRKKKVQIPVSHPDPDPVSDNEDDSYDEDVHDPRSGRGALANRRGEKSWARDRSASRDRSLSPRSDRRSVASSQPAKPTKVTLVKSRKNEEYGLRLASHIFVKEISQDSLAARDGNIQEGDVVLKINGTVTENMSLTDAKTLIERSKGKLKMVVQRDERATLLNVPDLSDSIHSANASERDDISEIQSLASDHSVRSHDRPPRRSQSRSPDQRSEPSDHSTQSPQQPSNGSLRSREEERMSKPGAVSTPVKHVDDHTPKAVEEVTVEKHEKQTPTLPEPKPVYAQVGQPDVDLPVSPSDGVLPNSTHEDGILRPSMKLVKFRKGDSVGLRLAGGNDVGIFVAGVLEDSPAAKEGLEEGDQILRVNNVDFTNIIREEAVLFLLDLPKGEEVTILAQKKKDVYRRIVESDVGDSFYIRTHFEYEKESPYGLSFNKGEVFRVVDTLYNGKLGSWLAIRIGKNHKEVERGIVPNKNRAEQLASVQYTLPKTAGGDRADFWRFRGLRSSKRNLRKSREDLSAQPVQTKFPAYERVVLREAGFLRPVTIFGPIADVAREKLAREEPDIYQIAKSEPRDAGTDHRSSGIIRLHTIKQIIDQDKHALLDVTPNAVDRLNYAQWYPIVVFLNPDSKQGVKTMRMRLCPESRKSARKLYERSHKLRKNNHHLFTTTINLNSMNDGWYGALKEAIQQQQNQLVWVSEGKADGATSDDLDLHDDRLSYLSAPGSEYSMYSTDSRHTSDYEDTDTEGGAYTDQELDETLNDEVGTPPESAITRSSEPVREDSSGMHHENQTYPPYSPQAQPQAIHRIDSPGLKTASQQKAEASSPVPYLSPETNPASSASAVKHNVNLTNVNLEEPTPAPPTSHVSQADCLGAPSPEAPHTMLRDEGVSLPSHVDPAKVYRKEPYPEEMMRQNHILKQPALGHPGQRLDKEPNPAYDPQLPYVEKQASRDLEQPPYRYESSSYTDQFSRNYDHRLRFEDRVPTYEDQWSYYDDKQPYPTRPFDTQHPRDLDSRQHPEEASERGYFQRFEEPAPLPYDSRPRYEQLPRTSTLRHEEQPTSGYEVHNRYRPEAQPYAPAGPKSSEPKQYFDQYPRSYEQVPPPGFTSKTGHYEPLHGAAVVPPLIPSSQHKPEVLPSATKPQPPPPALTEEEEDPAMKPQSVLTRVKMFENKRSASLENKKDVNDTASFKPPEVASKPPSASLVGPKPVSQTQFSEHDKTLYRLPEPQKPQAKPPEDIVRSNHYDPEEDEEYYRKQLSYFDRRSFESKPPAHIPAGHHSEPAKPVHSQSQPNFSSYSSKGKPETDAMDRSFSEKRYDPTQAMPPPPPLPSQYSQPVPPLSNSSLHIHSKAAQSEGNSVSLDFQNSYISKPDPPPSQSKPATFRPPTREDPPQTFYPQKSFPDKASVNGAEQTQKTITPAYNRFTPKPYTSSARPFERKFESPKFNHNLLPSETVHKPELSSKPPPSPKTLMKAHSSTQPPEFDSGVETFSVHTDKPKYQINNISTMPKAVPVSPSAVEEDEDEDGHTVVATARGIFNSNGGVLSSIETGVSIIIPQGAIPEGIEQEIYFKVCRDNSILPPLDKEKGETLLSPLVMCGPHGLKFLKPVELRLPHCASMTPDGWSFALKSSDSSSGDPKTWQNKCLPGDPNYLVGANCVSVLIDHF

[2] = biological target: zonula occludens 1 (rat alveolar epithelial cells) (rat); assay: STORM co-localization, rat AECs transduced with YFP-claudin-5
[3] = biological target: zonula occludens 1 (rat alveolar epithelial cells) (rat); assay: STORM co-localization, rat AECs without YFP-claudin-5
[4] = biological target: T1, zonula occludens 1 (rat alveolar epithelial cells) (rat, UniProt A0A0G2K2P5 1-1765); assay: STORM co-localization in rat AECs (FIG. 4C)
T1 construct: Endogenous cytoplasmic protein within primary rat AECs (not a surface protein); also called ZO-1
T1 sequence (A0A0G2K2P5 whole entry): as the sequence (A0A0G2 entry or part of it limits assumed) above

Molecule | co-localization index [1] | co-localization [2] | co-localization [3] | binding result [4]
native claudin-18 (rat alveolar epithelial cells) (from UniProt Q5I0E5 1-261) | 30.5% | 16% | 31% | 
B1 |  |  |  | binds
